This is an account of results in patent US20210238260.

Data set [1] has as its target plasma purified human AT-III (antithrombin III). The data set can be described thus: AT-III/UFH inhibition K0.5, ratio to Catalyst Biosciences WT FIXa.
Data set [2] addresses plasma purified human antithrombin III (AT-III), as complex with unfractionated heparin. The data set can be described thus: ratio of K0.5 (lower limit) to Catalyst Biosciences WT FIXa, AT-III/UFH inhibition.

Some results are limits rather than exact numbers.

Chain of Factor X (FX), P00742 (P00742 whole entry, looked up): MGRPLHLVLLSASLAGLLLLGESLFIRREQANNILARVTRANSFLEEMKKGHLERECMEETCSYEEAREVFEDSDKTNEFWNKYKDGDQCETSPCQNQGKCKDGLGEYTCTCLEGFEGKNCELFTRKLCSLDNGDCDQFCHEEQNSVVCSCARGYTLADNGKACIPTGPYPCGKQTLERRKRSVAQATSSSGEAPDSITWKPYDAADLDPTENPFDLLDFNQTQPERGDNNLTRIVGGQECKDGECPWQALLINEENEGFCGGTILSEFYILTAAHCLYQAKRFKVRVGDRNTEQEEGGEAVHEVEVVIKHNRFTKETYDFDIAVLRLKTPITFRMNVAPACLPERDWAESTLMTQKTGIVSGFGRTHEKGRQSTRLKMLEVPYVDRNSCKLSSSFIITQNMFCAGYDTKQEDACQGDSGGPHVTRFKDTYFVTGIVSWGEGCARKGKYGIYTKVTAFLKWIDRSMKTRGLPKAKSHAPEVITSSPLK
Chain of Factor X, P00742 (P00742 whole entry, looked up): as above

B1: FIXa-Y155F/K228N/R318Y/R338E/R403E/E410N (protein)
chain 1: YNSGKLEEFVQGNLERECMEEKCSFEEAREVFENTERTTEFWKQYVDGDQCESNPCLNGGSCKDDINSYECWCPFGFEGKNCELDVTCNIKNGRCEQFCKNSADNKVVCSCTEGYRLAENQKSCEPAVPFPCGRVSVSQTSKLTR
chain 2: VVGGEDAKPGQFPWQVVLNGKVDAFCGGSIVNEKWIVTAAHCVETGVNITVVAGEHNIEETEHTEQKRNVIRIIPHHNYNAAINKYNHDIALLELDEPLVLNSYVTPICIADKEYTNIFLKFGSGYVSGWGRVFHKGYSALVLQYLRVPLVDRATCLESTKFTIYNNMFCAGFHEGGRDSCQGDSGGPHVTEVEGTSFLTGIISWGEECAMKGKYGIYTKVSEYVNWIKNKTKLT
By kcat is commonly meant the number of substrate molecules converted per active site and unit of time at saturation. Broadly, the kcat/KM is the second-order rate constant that governs catalysis at low substrate concentration. By KM is commonly meant the substrate concentration at which the rate is half of its maximum. For the protein B1, in the data set with Factor X (FX), P00742, the “% of WT kcat/KM” value was 356%, the turnover number (kcat) was 9.7 s⁻¹ and the kcat/KM was found to be 1.6e+08 M⁻¹ s⁻¹. Besides, in the data set with Factor X, P00742, the “% of WT kcat/KM” value turned out to be 453%, the Michaelis-Menten constant (KM) is 0.048 µM and the catalytic efficiency (kcat/KM) came out at 2e+08 M⁻¹ s⁻¹. Moreover, in data set [1], the K0.5-mut/K0.5-wt was greater than 517. Moreover, the K0.5-mut/K0.5-wt in data set [2] is 517.

B2: FIXa-K228N/R318Y/R338E/R403E/E410N (protein)
chain 1: YNSGKLEEFVQGNLERECMEEKCSFEEAREVFENTERTTEFWKQYVDGDQCESNPCLNGGSCKDDINSYECWCPFGFEGKNCELDVTCNIKNGRCEQFCKNSADNKVVCSCTEGYRLAENQKSCEPAVPFPCGRVSVSQTSKLTR
chain 2: VVGGEDAKPGQFPWQVVLNGKVDAFCGGSIVNEKWIVTAAHCVETGVNITVVAGEHNIEETEHTEQKRNVIRIIPHHNYNAAINKYNHDIALLELDEPLVLNSYVTPICIADKEYTNIFLKFGSGYVSGWGRVFHKGYSALVLQYLRVPLVDRATCLESTKFTIYNNMFCAGFHEGGRDSCQGDSGGPHVTEVEGTSFLTGIISWGEECAMKGKYGIYTKVSEYVNWIKNKTKLT
For the protein B2, in the data set with Factor X, P00742, the “% of WT kcat/KM” value was 349%, the KM amounted to 0.0361 µM and the specificity constant (kcat/KM) came to 1.6e+08 M⁻¹ s⁻¹. For the same protein, the K0.5-mut/K0.5-wt in data set [1] is greater than 517. For the same protein, the K0.5-mut/K0.5-wt in data set [2] is 517.

B3: FIXa-D104N/K106S/K247N/N249S/R318Y/R338E/R403E/E410N (protein)
chain 1: YNSGKLEEFVQGNLERECMEEKCSFEEAREVFENTERTTEFWKQYVDGDQCESNPCLNGGSCKDDINSYECWCPFGFEGKNCELDVTCNIKNGRCEQFCKNSANNSVVCSCTEGYRLAENQKSCEPAVPFPCGRVSVSQTSKLTR
chain 2: VVGGEDAKPGQFPWQVVLNGKVDAFCGGSIVNEKWIVTAAHCVETGVKITVVAGEHNIEETEHTEQNRSVIRIIPHHNYNAAINKYNHDIALLELDEPLVLNSYVTPICIADKEYTNIFLKFGSGYVSGWGRVFHKGYSALVLQYLRVPLVDRATCLESTKFTIYNNMFCAGFHEGGRDSCQGDSGGPHVTEVEGTSFLTGIISWGEECAMKGKYGIYTKVSEYVNWIKNKTKLT
On to B3, for which, in the data set with Factor X (FX), P00742, the “% of WT kcat/KM” value came out at 192%, the turnover number (kcat) amounted to 5.2 s⁻¹ and the catalytic efficiency (kcat/KM) turned out to be 8.8e+07 M⁻¹ s⁻¹. In the data set with Factor X, P00742, the “% of WT kcat/KM” value worked out at 197%, the Michaelis constant (KM) came out at 0.059 µM and the kcat/KM is 8.8e+07 M⁻¹ s⁻¹. Moreover, the K0.5-mut/K0.5-wt in data set [1] is greater than 517. Further, the K0.5-mut/K0.5-wt in data set [2] is 517.

B4: FIXa-D104N/K106S/I251S/R318Y/R338E/R403E/E410N (protein)
chain 1: YNSGKLEEFVQGNLERECMEEKCSFEEAREVFENTERTTEFWKQYVDGDQCESNPCLNGGSCKDDINSYECWCPFGFEGKNCELDVTCNIKNGRCEQFCKNSANNSVVCSCTEGYRLAENQKSCEPAVPFPCGRVSVSQTSKLTR
chain 2: VVGGEDAKPGQFPWQVVLNGKVDAFCGGSIVNEKWIVTAAHCVETGVKITVVAGEHNIEETEHTEQKRNVSRIIPHHNYNAAINKYNHDIALLELDEPLVLNSYVTPICIADKEYTNIFLKFGSGYVSGWGRVFHKGYSALVLQYLRVPLVDRATCLESTKFTIYNNMFCAGFHEGGRDSCQGDSGGPHVTEVEGTSFLTGIISWGEECAMKGKYGIYTKVSEYVNWIKNKTKLT
As for B4, in the data set with Factor X (FX), P00742, the “% of WT kcat/KM” value is 263%, the kcat is 5.5 s⁻¹ and the catalytic efficiency (kcat/KM) was 1.2e+08 M⁻¹ s⁻¹. For the same protein, the K0.5-mut/K0.5-wt in data set [1] is greater than 517. Further, in data set [2], the K0.5-mut/K0.5-wt is 517.

B5: FIXa-D85N/K228N/R318Y/R338E/R403E/E410N (protein)
chain 1: YNSGKLEEFVQGNLERECMEEKCSFEEAREVFENTERTTEFWKQYVDGDQCESNPCLNGGSCKDDINSYECWCPFGFEGKNCELNVTCNIKNGRCEQFCKNSADNKVVCSCTEGYRLAENQKSCEPAVPFPCGRVSVSQTSKLTR
chain 2: VVGGEDAKPGQFPWQVVLNGKVDAFCGGSIVNEKWIVTAAHCVETGVNITVVAGEHNIEETEHTEQKRNVIRIIPHHNYNAAINKYNHDIALLELDEPLVLNSYVTPICIADKEYTNIFLKFGSGYVSGWGRVFHKGYSALVLQYLRVPLVDRATCLESTKFTIYNNMFCAGFHEGGRDSCQGDSGGPHVTEVEGTSFLTGIISWGEECAMKGKYGIYTKVSEYVNWIKNKTKLT
Consider B5, for which, in the data set with Factor X (FX), P00742, the “% of WT kcat/KM” value came to 336%, the turnover number (kcat) worked out at 6 s⁻¹ and the kcat/KM was 1.6e+08 M⁻¹ s⁻¹. Also, in the data set with Factor X, P00742, the “% of WT kcat/KM” value worked out at 346%, the Michaelis constant (KM) came to 0.0393 µM and the kcat/KM came to 1.6e+08 M⁻¹ s⁻¹. The K0.5-mut/K0.5-wt in data set [1] was greater than 517. The K0.5-mut/K0.5-wt in data set [2] is 517.

B6: FIXa-Y155F/K247N/N249S/R318Y/R338E/R403E/E410N (protein)
chain 1: YNSGKLEEFVQGNLERECMEEKCSFEEAREVFENTERTTEFWKQYVDGDQCESNPCLNGGSCKDDINSYECWCPFGFEGKNCELDVTCNIKNGRCEQFCKNSADNKVVCSCTEGYRLAENQKSCEPAVPFPCGRVSVSQTSKLTR
chain 2: VVGGEDAKPGQFPWQVVLNGKVDAFCGGSIVNEKWIVTAAHCVETGVKITVVAGEHNIEETEHTEQNRSVIRIIPHHNYNAAINKYNHDIALLELDEPLVLNSYVTPICIADKEYTNIFLKFGSGYVSGWGRVFHKGYSALVLQYLRVPLVDRATCLESTKFTIYNNMFCAGFHEGGRDSCQGDSGGPHVTEVEGTSFLTGIISWGEECAMKGKYGIYTKVSEYVNWIKNKTKLT
As to B6, in the data set with Factor X (FX), P00742, the “% of WT kcat/KM” value is 405%, the kcat turned out to be 6.5 s⁻¹ and the kcat/KM stood at 1.9e+08 M⁻¹ s⁻¹. In the data set with Factor X, P00742, the “% of WT kcat/KM” value stood at 408%, the KM came to 0.0391 µM and the specificity constant (kcat/KM) was found to be 1.8e+08 M⁻¹ s⁻¹. The K0.5-mut/K0.5-wt in data set [1] was greater than 517. Further, the K0.5-mut/K0.5-wt in data set [2] came out at 517.

B7: FIXa-R318Y/R338E/N346D/R403E/E410N (protein)
chain 1: YNSGKLEEFVQGNLERECMEEKCSFEEAREVFENTERTTEFWKQYVDGDQCESNPCLNGGSCKDDINSYECWCPFGFEGKNCELDVTCNIKNGRCEQFCKNSADNKVVCSCTEGYRLAENQKSCEPAVPFPCGRVSVSQTSKLTR
chain 2: VVGGEDAKPGQFPWQVVLNGKVDAFCGGSIVNEKWIVTAAHCVETGVKITVVAGEHNIEETEHTEQKRNVIRIIPHHNYNAAINKYNHDIALLELDEPLVLNSYVTPICIADKEYTNIFLKFGSGYVSGWGRVFHKGYSALVLQYLRVPLVDRATCLESTKFTIYDNMFCAGFHEGGRDSCQGDSGGPHVTEVEGTSFLTGIISWGEECAMKGKYGIYTKVSEYVNWIKNKTKLT
For the protein B7, in the data set with Factor X (FX), P00742, the KM turned out to be 0.0777 µM and the kcat of FX activation by FIXa (Xase complex with FVIIIa, PC/PS vesicles, Ca2+) was 2.5 s⁻¹. Besides, the K0.5-mut/K0.5-wt in data set [1] was greater than 517. In addition, in data set [2], the K0.5-mut/K0.5-wt amounted to 517.

B8: FIXa-Y155F/I251S/R318Y/R338E/R403E/E410N (protein)
chain 1: YNSGKLEEFVQGNLERECMEEKCSFEEAREVFENTERTTEFWKQYVDGDQCESNPCLNGGSCKDDINSYECWCPFGFEGKNCELDVTCNIKNGRCEQFCKNSADNKVVCSCTEGYRLAENQKSCEPAVPFPCGRVSVSQTSKLTR
chain 2: VVGGEDAKPGQFPWQVVLNGKVDAFCGGSIVNEKWIVTAAHCVETGVKITVVAGEHNIEETEHTEQKRNVSRIIPHHNYNAAINKYNHDIALLELDEPLVLNSYVTPICIADKEYTNIFLKFGSGYVSGWGRVFHKGYSALVLQYLRVPLVDRATCLESTKFTIYNNMFCAGFHEGGRDSCQGDSGGPHVTEVEGTSFLTGIISWGEECAMKGKYGIYTKVSEYVNWIKNKTKLT
B8: in the data set with Factor X (FX), P00742, the “% of WT kcat/KM” value is reported as 363%, the kcat was found to be 7.2 s⁻¹ and the kcat/KM amounted to 1.7e+08 M⁻¹ s⁻¹. For the same protein, in the data set with Factor X, P00742, the “% of WT kcat/KM” value was 374%, the KM stood at 0.0433 µM and the catalytic efficiency (kcat/KM) was 1.7e+08 M⁻¹ s⁻¹. Also, the K0.5-mut/K0.5-wt in data set [1] is greater than 517. The K0.5-mut/K0.5-wt in data set [2] was determined as 517.

B9: FIXa-I251S/R318Y/R338E/R403E/E410N (protein)
chain 1: YNSGKLEEFVQGNLERECMEEKCSFEEAREVFENTERTTEFWKQYVDGDQCESNPCLNGGSCKDDINSYECWCPFGFEGKNCELDVTCNIKNGRCEQFCKNSADNKVVCSCTEGYRLAENQKSCEPAVPFPCGRVSVSQTSKLTR
chain 2: VVGGEDAKPGQFPWQVVLNGKVDAFCGGSIVNEKWIVTAAHCVETGVKITVVAGEHNIEETEHTEQKRNVSRIIPHHNYNAAINKYNHDIALLELDEPLVLNSYVTPICIADKEYTNIFLKFGSGYVSGWGRVFHKGYSALVLQYLRVPLVDRATCLESTKFTIYNNMFCAGFHEGGRDSCQGDSGGPHVTEVEGTSFLTGIISWGEECAMKGKYGIYTKVSEYVNWIKNKTKLT
In the case of B9, in the data set with Factor X (FX), P00742, the “% of WT kcat/KM” value was found to be 334%, the kcat amounted to 4.8 s⁻¹ and the kcat/KM was found to be 1.5e+08 M⁻¹ s⁻¹. Moreover, in the data set with Factor X, P00742, the “% of WT kcat/KM” value came to 344%, the KM came to 0.0334 µM and the kcat/KM was 1.5e+08 M⁻¹ s⁻¹. Further, in data set [1], the K0.5-mut/K0.5-wt is greater than 517. Further, the K0.5-mut/K0.5-wt in data set [2] was 517.

B10: FIXa-R318Y/R338E/R403E/T412A (protein)
chain 1: YNSGKLEEFVQGNLERECMEEKCSFEEAREVFENTERTTEFWKQYVDGDQCESNPCLNGGSCKDDINSYECWCPFGFEGKNCELDVTCNIKNGRCEQFCKNSADNKVVCSCTEGYRLAENQKSCEPAVPFPCGRVSVSQTSKLTR
chain 2: VVGGEDAKPGQFPWQVVLNGKVDAFCGGSIVNEKWIVTAAHCVETGVKITVVAGEHNIEETEHTEQKRNVIRIIPHHNYNAAINKYNHDIALLELDEPLVLNSYVTPICIADKEYTNIFLKFGSGYVSGWGRVFHKGYSALVLQYLRVPLVDRATCLESTKFTIYNNMFCAGFHEGGRDSCQGDSGGPHVTEVEGTSFLTGIISWGEECAMKGKYGIYTKVSEYVNWIKEKAKLT
Consider B10, for which the K0.5-mut/K0.5-wt was greater than 517 in data set [1] and 517 in data set [2].
